Biological target: T1, ErdR (CrbR), 6His-ErdR (Pseudomonas putida KT2440) (UniProt Q88MD8)
T1 sequence: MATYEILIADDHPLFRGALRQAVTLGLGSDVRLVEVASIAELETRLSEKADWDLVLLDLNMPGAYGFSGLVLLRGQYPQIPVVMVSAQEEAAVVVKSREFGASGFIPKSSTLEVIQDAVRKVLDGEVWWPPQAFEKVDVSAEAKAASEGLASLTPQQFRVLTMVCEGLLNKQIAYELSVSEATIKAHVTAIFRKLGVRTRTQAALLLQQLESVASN
Assay: EMSA
Settings: 10 mM Tris-HCl pH 8, 2 mM MgCl2, 1 mM DTT, 10% glycerol, 12 ng/uL sheared salmon sperm DNA, 2 mM acetyl phosphate when needed; 2.5 ng DNA in 10 uL, 20 min at …

Sequence	binding	binding signal
AATCGCCTTGCCGTTGCTGGCGAGGTGAATTTTATGGCGCTGGCCAAGGCCGAAACAGTGGGTGTTTTGATAAAGTGTTTTGACAGAATCTGTAACAATCCTGTGGCAAACCCCTCGTTTTTTCGTCGGCAAGGCTGTAA (double strand) [acsA-I (1) promoter]	no binding	–
AGCAACGGCAAGGCGATTAACAACTGGTAACAGCCCCCACGAAGGCAAGCGTTAATCTCCATCTAATCCCGATAGTTAAAACTAGCAATACTCGCGGCGCCATAAGCGCCGCGTGCCCCCTCACGACCTTAGACAGGTAA (double strand) [acsA-I (2) promoter]	no binding	–
CGCGAACGGGTCATCACTTTGTTACGCAATCGGTAAAACACCGTTGCATCTAAGACTAAGGTCGTCTGGTTGGCGTCCATCGGCAGCATAAAGTAAGGGTGTGGGTTCCATCCCGTATCTGTGCTGCTAGGACAAAAACA (double strand) [yjcH (actP-I) promoter]	binds	–
TAGGCGTCCTTTTTGCTCATGAAACTGACCGTATCGCTATGCCGAACTATATATATCTATATATAGGTACCGGCCATGTTGTTCTCTGCCTCCATGGTCGGCTTGCGGCGGGGTGGTGCCCATTGGACGTAAGTCTATGA (double strand) [pp_0354 promoter]	binds	binds

From PMC8402216
